Reference: paper PMC10484735

How the values were obtained:
[1] = test system: gp32 (WT) (bacteriophage T4); test: optical tweezers (koff/kon); conditions: 15 pN tension; kon 0.003 nM-1 s-1; cooperative binding to bare ssDNA; Optical tweezers buffer, pH and temperature not in the material (lower salt than AFM; 15 pN for Kd); AFM: 150 mM Na+, 100 uM spermidine, 37 C, 5 min
[2] = test system: *II (gp32 N-terminal truncate) (bacteriophage T4); test: optical tweezers (koff/kon); conditions: 15 pN tension; kon 0.0024 nM-1 s-1, koff 0.11 s-1; Optical tweezers buffer, pH and temperature not in the material (lower salt than AFM; 15 pN for Kd); AFM: 150 mM Na+, 100 uM spermidine, 37 C, 5 min
[3] = target: Bacteriophage T4 gene 32 protein (gp32), full-length (bacteriophage T4) (UniProt P03695)
[4] = target: Bacteriophage T4 gene 32 protein (gp32), full-length (bacteriophage T4) (UniProt P03695); remark: listed apart in the source
[5] = target: Bacteriophage T4 gene 32 protein (gp32), full-length (bacteriophage T4) (UniProt P03695); remark: listed apart in the source

In the case of 8.1 knt ssDNA (optical tweezers), the Kd [1] is reported as 0.001 µM and the Kd [2] is reported as 0.046 µM.

B1: Bacteriophage T4 gene 32 protein (gp32), full-length (natural protein)
chain: MFKRKSTAELAAQMAKLNGNKGFSSEDKGEWKLKLDNAGNGQAVIRFLPSKNDEQAPFAILVNHGFKKNGKWYIETCSSTHGDYDSCPVCQYISKNDLYNTDNKEYSLVKRKTSYWANILVVKDPAAPENEGKVFKYRFGKKIWDKINAMIAVDVEMGETPVDVTCPWEGANFVLKVKQVSGFSNYDESKFLNQSAIPNIDDESFQKELFEQMVDLSEMTSKDKFKSFEELNTKFGQVMGTAVMGGAAATAAKKADKVADDLDAFNVDDFNTKTEDDFMSSSSGSSSSADDTDLDDLLNDL
Work on B1 yielded a rate of ssDNA compaction after bimolecular binding (kc, two-step fit of k+1 against gp32 concentration at 15 pN, optical tweezers) [3] of 1.5 s^−1, a maximal compaction of 8.1 knt ssDNA at 15 pN (optical tweezers, constant force), WT gp32 against the noncooperative truncate *II that lacks the N-terminal domain [4] of 4 fold and a persistence length of the gp32–ssDNA complex (WLC fit of force-extension curves up to 5 pN, optical tweezers; plateau at gp32 ≥25 nM, up to 1 μM) [5] of 20 nm.
